Experimental data published in the supplement of paper PMC11246515.
± gives the standard deviation of the averaged measurements.

Experiment: total protein half-life in vivo (active degradation + dilution); higher = more stable protein
[1] = wild type E. coli NCM3722, growth: C-lim chemostat, doubling time 3 h
[2] = wild type E. coli NCM3722, growth: N-lim chemostat, doubling time 6 h
[3] = E. coli NCM3722 delta-smpB, growth: N-lim chemostat, doubling time 6 h
[4] = E. coli NCM3722 delta-clpP delta-lon delta-hslV, growth: N-lim chemostat, doubling time 6 h
[5] = E. coli NCM3722 delta-clpP, growth: N-lim chemostat, doubling time 6 h
[6] = E. coli NCM3722 delta-hslV, growth: N-lim chemostat, doubling time 6 h
[7] = E. coli NCM3722 delta-lon, growth: N-lim chemostat, doubling time 6 h
[8] = wild type E. coli NCM3722, growth: C-lim chemostat, doubling time 6 h
[9] = wild type E. coli NCM3722, growth: C-lim chemostat, doubling time 12 h
[10] = wild type E. coli NCM3722, growth: N-lim chemostat, doubling time 12 h
[11] = wild type E. coli NCM3722, growth: P-lim chemostat, doubling time 6 h
[12] = wild type E. coli NCM3722, growth: P-lim chemostat, doubling time 12 h

Sequence | total protein half-life in vivo [1] [h] | total protein half-life in vivo [2] [h] | total protein half-life in vivo [3] [h] | total protein half-life in vivo [4] [h] | total protein half-life in vivo [5] [h] | total protein half-life in vivo [6] [h] | total protein half-life in vivo [7] [h] | total protein half-life in vivo [8] [h] | total protein half-life in vivo [9] [h] | total protein half-life in vivo [10] [h] | total protein half-life in vivo [11] [h] | total protein half-life in vivo [12] [h]
MKNNSQLLMPREKMLKFGISALTDVELLALFLRTGTRGKDVLTLAKEMLENFGSLYGLLTSEYEQFSGVHGIGVAKFAQLKGIAELARRYYNVRMREESPLLSPEMTREFLQSQLTGEEREIFMVIFLDSQHRVITHRRLFSGTLNHVEVHPREIIREAIKINASALILAHNHPSGCAEPSKADKLITERIIKSCQFMDLRVLDHIVIGRGEYVSFAERGWI | 3.03 | 4.31 |  |  |  |  |  |  |  |  |  | 
MKNRTLGSVFIVAGTTIGAGMLAMPLAAAGVGFSVTLILLIGLWALMCYTALLLLEVYQHVPADTGLGTLAKRYLGRYGQWLTGFSMMFLMYALTAAYISGAGELLASSISDWTGISMSATAGVLLFTFVAGGVVCVGTSLVDLFNRFLFSAKIIFLVVMLVLLLPHIHKVNLLTLPLQQGLALSAIPVIFTSFGFHGSVPSIVSYMDGNIRKLRWVFIIGSAIPLVAYIFWQVATLGSIDSTTFMGLLANHAGLNGLLQALREMVASPHVELAVHLFADLALATSFLGVALGLFDYLADLFQRSNTVGGRLQTGAITFLPPLAFALFYPRGFVMALGYAGVALAVLALIIPSLLTWQSRKHNPQAGYRVKGGRPALVVVFLCGIAVIGVQFLIAAGLLPEVG [P0AAD4] |  |  | 6.48 |  |  |  |  |  |  |  |  | 
MKNTELEQLINEKLNSAAISDYAPNGLQVEGKETVQKIVTGVTASQALLDEAVRLGADAVIVHHGYFWKGESPVIRGMKRNRLKTLLANDINLYGWHLPLDAHPELGNNAQLAALLGITVMGEIEPLVPWGELTMPVPGLELASWIEARLGRKPLWCGDTGPEVVQRVAWCTGGGQSFIDSAARFGVDAFITGEVSEQTIHSAREQGLHFYAAGHHATERGGIRALSEWLNENTDLDVTFIDIPNPA [P0AFP6] | 2.86 ± 0.27 | 3.66 ± 0.23 | 3.7 ± 0.28 | 4.31 ± 0.15 | 3.736 ± 0.0077 | 3.9 ± 0.38 | 4.42 ± 0.65 | 6.13 ± 0.52 | 10.3 ± 0.29 | 5.74 ± 0.75 | 5.26 ± 0.41 | 11.2 ± 1.2
MKNTKLLLAIATSAALLTGCQNTHGIDTNMAISSGLNAYKAATLSDADAKAIANQGCAEMDSGNQVASKSSKYGKRLAKIAKALGNNINGTPVNYKVYMTSDVNAWAMANGCVRVYSGLMDMMNDNEIEGVLGHELGHVALGHSLAEMKASYAIVAARDAISATSGVASQLSRSQLGDIAEGAINAKYSRDKESEADDFSFDLLKKRGISTQGLVGSFETLASLDGGRTQSMFDSHPPSTERAQHIRDRIASGK |  |  |  |  | 3.87 | 4.19 | 5.88 |  |  |  |  | 
MKNVGFIGWRGMVGSVLMQRMVEERDFDAIRPVFFSTSQLGQAAPSFGGTTGTLQDAFDLEALKALDIIVTCQGGDYTNEIYPKLRESGWQGYWIDAASSLRMKDDAIIILDPVNQDVITDGLNNGIRTFVGGNCTVSLMLMSLGGLFANDLVDWVSVATYQAASGGGARHMRELLTQMGHLYGHVADELATPSSAILDIERKVTTLTRSGELPVDNFGVPLAGSLIPWIDKQLDNGQSREEWKGQAETNKILNTSSVIPVDGLCVRVGALRCHSQAFTIKLKKDVSIPTVEELLAAHNPWAKVVPNDREITMRELTPAAVTGTLTTPVGRLRKLNMGPEFLSAFTVGDQLLWGAAEPLRRMLRQLA [P0A9Q9] | 2.97 ± 0.19 | 3.76 ± 0.22 | 3.49 ± 0.27 | 4.6 ± 1.1 | 3.96 ± 0.59 | 3.75 ± 0.11 | 4.54 ± 0.57 | 5.55 ± 0.092 | 9.4 ± 0.89 | 5.831 ± 0.054 | 5.76 ± 0.3 | 11 ± 1.3
MKNWKTSAESILTTGPVVPVIVVKKLEHAVPMAKALVAGGVRVLEVTLRTECAVDAIRAIAKEVPEAIVGAGTVLNPQQLAEVTEAGAQFAISPGLTEPLLKAATEGTIPLIPGISTVSELMLGMDYGLKEFKFFPAEANGGVKALQAIAGPFSQVRFCPTGGISPANYRDYLALKSVLCIGGSWLVPADALEAGDYDRITKLAREAVEGAKL [P0A955] | 2.99 ± 0.52 | 4.63 ± 0.16 | 4.3 ± 0.16 | 4.94 ± 0.33 | 4.33 ± 0.52 | 4.66 ± 0.37 | 4.92 ± 0.53 | 6.17 ± 0.77 | 9.18 ± 0.99 | 7.2 ± 0.82 | 5.39 ± 0.082 | 12.2 ± 0.37
MKPARVPQTVVAPDCWGDLPWGKLYRKALERQLNPWFTKMYGFHLLKIGNLSAEINCEACAVSHQVNVSAQGMPVQVQADPLHLPFADKSVDVCLLAHTLPWCTDPHRLLREADRVLIDDGWLVISGFNPISFMGLRKLVPVLRKTSPYNSRMFTLMRQLDWLSLLNFEVLHASRFHVLPWNKHGGKLLNAHIPALGCLQLIVARKRTIPLTLNPMKQSKNKPRIRQAVGATRQCRKPQA | 1.91 ± 0.15 | 6.41 | 7.25 ± 1 | 5.49 ± 0.13 |  | 5.49 ± 0.6 | 5.76 ± 1 | 4.59 ± 1.2 | 11.5 | 9.9 ± 3.1 | 5.31 ± 1.1 | 10.6 ± 2.4
MKPDAHQVKQFLLNLQDTICQQLTAVDGAEFVEDSWQREAGGGGRSRVLRNGGVFEQAGVNFSHVHGEAMPASATAHRPELAGRSFEAMGVSLVVHPHNPYVPTSHANVRFFIAEKPGADPVWWFGGGFDLTPFYGFEEDAIHWHRTARDLCLPFGEDVYPRYKKWCDEYFYLKHRNEQRGIGGLFFDDLNTPDFDRCFAFMQAVGKGYTDAYLPIVERRKAMAYGERERNFQLYRRGRYVEFNLVWDRGTLFGLQTGGRTESILMSMPPLVRWEYDYQPKDGSPEAALSEFIKVRDWV |  | 4.29 ± 0.35 | 4.05 ± 0.34 | 5.53 ± 1.4 | 4.55 ± 0.073 | 5 ± 0.44 | 5.01 ± 0.37 | 5.24 ± 0.9 | 10.1 ± 0.14 | 7.38 ± 0.34 | 6.06 ± 0.66 | 11.7 ± 0.97
